PMC3560613

Substrate: Nc1ccn([C@@H]2O[C@H](COP(=O)(O)OP(=O)(O)OP(=O)(O)O)[C@@H](O)[C@H]2O)c(=O)n1
Test: purified protein
Conditions: 20 mM glycerol phosphate, 6 mM MgCl2, 20 mM Tris-HCl pH 8, 37°C

Protein	Km [µM]	kcat [s⁻¹]
LmGCT (Listeria monocytogenes glycerol 3-phosphate cytidylyltransferase) (Listeria monocytogenes EGD-e) (protein) MKKVITYGTFDLLHWGHIHLLKRAKALGDYLIVAISSDEFNRIKHKEAYHSYEHRKLIIEAIRYVDEVIPENNWEQKRDDIEKYGIDVFVMGDDWEGEFDFLKDVCEVVYLPRTEGISTSQIKDELK	1520	4.15
EfGCT (Enterococcus faecalis glycerol 3-phosphate cytidylyltransferase) (Enterococcus faecalis V583) (protein) MKKILTYGTFDLLHYGHINLLKKAKQQGDYLIVGLSTDAFNLEKKKQSYFSYEKRKQLLEAIRYVDLVIPETSWKQKVSDIAEFKIDTLVMGDDWQGAFDFLEVETTAKVLYLPRTPEVSTTQIKKELYYSE	2420	1.51
